Source: US20230303660A1

Molecular target: human 4-1BB (human) (UniProt Q07011)
Test: cell-based or functional assay

Chain of human 4-1BB (human) (Q07011 24-255): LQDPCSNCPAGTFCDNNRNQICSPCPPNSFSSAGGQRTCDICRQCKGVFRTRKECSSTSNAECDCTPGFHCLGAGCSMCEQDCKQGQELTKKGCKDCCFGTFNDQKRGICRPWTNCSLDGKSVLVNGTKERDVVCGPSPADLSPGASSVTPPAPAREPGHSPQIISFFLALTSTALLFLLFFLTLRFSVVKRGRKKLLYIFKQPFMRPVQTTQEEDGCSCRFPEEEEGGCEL

human 4-1BBL expressed on T cell stimulator cells (from UniProt P41273 1-254) (ligand)
NF-κB activation measured through eCFP expression (fold induction): 2.5 fold
